Experimental data as given in patent US6084072A, “Purified lectin and methods of use” (The Regents of the University of Michigan, priority 1993, dated 2000).
Where “and” joins values, the source holds several entries; their conditions need not be identical. Equal entries are not always repeated.

Columns and labels:
colonic adenocarcinoma = format: binding, human; conditions: cancer specimens
FAP colonic tissue = test: Lectin histochemistry, familial adenomatous polyposis (FAP) colonic tissue; format: binding, human; conditions: biotinylated ACA 10 μg/mL or PNA 20 μg/mL
Source text: Full thickness specimens of colonic tissue were obtained from colectomy specimens for familial adenomatous polyposis at Johns Hopkins Hospital, fixed in formalin, and embedded in paraffin for tissue sectioning. The tissue specimens contained normal-appearing flat mucosa familial adenomatous polyposis, or FAP-normal, as well as a polypoid, adenomatious tissue familial adenomatous polyposis, or FAP-abnormal.
(§1) Four micron paraffin embedded tissue sections attached to glass slides were deparaffinized by serial incubations in xylene (twice), absolute ethanol (thrice), 95% ethanol, 70% ethanol, water and finally equilibrated in phosphate buffered saline (PBS), pH 7.0, containing 0.1% bovine serum albumin (BSA) commercially available from Sigma Corp of St. Louis, Mo. The slides were blotted dry adjacent to the tissue sections, and biotinylated lectin was added at a concentration of 10 μg/ml (for ACA) and 20 μg/ml (for PNA) in a quantity sufficient to completely cover the hydrated tissue (100-2001 μl). The lectin was rinsed off after a 30 minute incubation by eight 2-second dips into phosphate buffered saline. […]
Therefore, each individual crypt of Lieberkuhn was given a score from 0-4^+, and the labeling was expressed as a "weighted average", or, the sum of scores from 100 crypts, which could range from 0 (all crypts not labeled) to 400 (all 100 crypts maximally labeled). […]

[1] = test system: well differentiated colonic adenocarcinoma sections; test: Inhibition of lectin binding with hapten sugars on tissue sections; design: species or system human; key to Labeling score: 4^+: Maximum labeling of the brown reaction product; 0: No staining of the slide compared to control sections; 1^+: trace or weak staining definitely not seen on control slides; 2+3^+: stronger staining, but definitely less than maximal
Method: Four micron paraffin embedded tissue sections attached to glass slides were deparaffinized by serial incubations in xylene (twice), absolute ethanol (thrice), 95% ethanol, 70% ethanol, water and finally equilibrated in phosphate buffered saline (PBS), pH 7.0, containing 0.1% bovine serum albumin (BSA) commercially available from Sigma Corp of St. Louis, Mo. The slides were blotted dry adjacent to the tissue sections, and biotinylated lectin was added at a concentration of 10 μg/ml (for ACA) and 20 μg/ml (for PNA) in a quantity sufficient to completely cover the hydrated tissue (100-2001 μl). The lectin was rinsed off after a 30 minute incubation by eight 2-second dips into phosphate buffered saline. The slides were again blotted, and the tissue covered with Streptavidin-horseradish peroxidase (HRP) obtained from Zymed Laboratories, San Francisco, Calif. at a concentration of 10 μg/ml for 30 minutes. The slides were rinsed as mentioned above, and the pigmented reaction product developed by the addition of a freshly prepared chromogen reagent solution prepared within two hours of use as follows.
3,3'-diaminobenzidine was aliqotted at 5 mg/mL in 0.01 M (Tris) tris hydroxy methyl amino methane saline, pH 7.5 and frozen at -70° C. until use. For use, the aliquot was thawed, diluted 1:10 in 0.01 M (Tris) tris hydroxy methyl amino methane saline pH 7.5, and 3.3 μL of 30% H2 O2 were added to each 5 ml. This solution was allowed to stand for 10 min, and 100-200 μl was applied to the tissue sections that had been incubated earlier with biotinylated lectin and Streptavidin-HRP. After 10 min, the slides were rinsed with albumin-free phosphate buffered saline. The tissues were briefly counterstained for 50 seconds with Gill's #3 hematoxylin bovine serum albumin, commercially available from Sigma Corp. of St. Louis, Mo., rinsed with water, and serially dehydrated using graded alcohols and xylene, and embedded in Permount, a trademarked, commercially available product of Allied-Fischer Scientific of Livonia, Mich.
The specificity of lectin binding was evaluated by preincubating the biotinylated lectin with inhibitory hapten sugar for 1-2 hours prior to its application to the tissue. In each instance, the reagents were prepared so that the final concentration of lectin on the slide was either 10 or 20 μg/ml and the hapten sugar was as indicated in the results. Galactose, lactose, GalNAc, and galactose-β1-3N-acetylgalactosamine-α-O-benzyl (T-antigen-α-O-benzyl) were also obtained from Sigma Corp.
The stained sections were examined with a light microscope using a 25× and 40× objective lenses and 10× eyepiece. Evaluation of lectin binding required the use of several approaches. First, the binding specificity was confirmed by coincubation of lectin with hapten sugars known to bind the lectin maximally. Maximum labeling of the brown reaction product was arbitrarily assigned a score 4^+. See Boland, C. R., Bresalier, R. S., and Roberts, J. A. "Assay of lectin binding sites in colonic cancer-associated mucins: comparison of fluorescence microscopy with a quantitative chromatographic technique." J. Histochem. Cytochem., 36: 1329-1334, 1988. No staining of the slide compared to control sections (i.e., in which lectin was omitted from the staining procedure) was assigned a score of 0. Intermediate scores of 1^+ (trace or weak staining definitely not seen on control slides) and 2+3^+ (stronger staining, but definitely less than maximal) were assigned. […] See Boland. This method was used to confirm the binding specificity to known "positive" tissues and to evaluate changes in lectin binding after neuraminidase treatment.
Specimens of well differentiated colonic cancers were incubated with biotinylated lectins. Working concentrations on the slide were 10 μg/ml for ACA and 20 μg/ml for PNA. The hapten sugars galactose (Gal), N-acetylgalactosamine (GalNAc), and Galβ1,3GalNAc-α-O-benzyl (T-antigen) were used to inhibit lectin binding to the tissues. […]

[2] = test system: human red blood cells (A, B, and O); conditions: see Lotan; cited from earlier work
HNPCC tissues = test: Lectin histochemistry, HNPCC rectal biopsies; format: binding, human; conditions: biotinylated ACA 10 μg/mL or PNA 20 μg/mL
Source text: Rectal biopsies were obtained from individuals who were first degree relatives of patients with hereditary nonpolyposis colorectal cancer (HNPCC) as identified by H. T. Lynch, M.D. These patients were the siblings or offspring of index patients who fit the criteria for Lynch Syndrome I or II. See Drzeniek, Z., and Usowska, E. (1979) Arch. Immunol Ther. Exp. 27, 253-262. However, since there is no definitive genetic or phenotypic marker for this familial syndrome, it is not possible to be certain that these patients represent a single homogenous genetic abnormality. The biopsies were fixed in formalin, and embedded in paraffin for tissue sectioning.
as §1

[3] = test system: normal colonic epithelium; format: binding, human
amaranthin = amaranthin (Amaranthus caudatus, UniProt Q71QF2); test: Precipitation of amaranthin by glycoproteins and glycoconjugates, native or glycosidase treated; format: binding; conditions: untreated glycoprotein or glycoconjugate; 80 μg amaranthin
Method: Glycosidase digestions, and in particular exo-β-galactosidase digestions were carried out for 9 hours at 37° C. in 0.1 M sodium citrate, pH 4.3 using 0.1 unit of enzyme/μmol of terminal galactosyl group. Endo-α-N-acetylgalactosaminidase treatment of asialo-ovine submaxillary mucin was done as described in Sadler, J. E., Rearick, J. L., Paulson, J. C., and Hill, R. L. (1979). GSC Exo-α-N-acetylgalactosaminidase digestion of asialo-ovine submaxillary mucin was carried out according to the recommendations of Genzyme of Boston, Mass. Glycoproteins were analyzed for carbohydrate composition, before and after glycosidase treatment, as described.
Precipitation assays were conducted in 1.5 ml centrifuge tubes by the method of So and Goldstein. Indicated amounts of glycoprotein were added to 80 μg of amaranthin, and the total volume was adjusted to 250 μl with phosphate buffered saline. The tubes were incubated at 37° C. and then kept at 4° C. for 2 days. The precipitates were centrifuged, washed with cold Phosphate buffered saline, dissolved in 0.05 N NaOH and analyzed for protein by the method of Lowery et al. using bovine serum albumin as the standard. […] Inhibition was determined relative to the amount of precipitate formed in the control with no sugar added. […]

amaranthin, sequence (Q71QF2 entry or part of it): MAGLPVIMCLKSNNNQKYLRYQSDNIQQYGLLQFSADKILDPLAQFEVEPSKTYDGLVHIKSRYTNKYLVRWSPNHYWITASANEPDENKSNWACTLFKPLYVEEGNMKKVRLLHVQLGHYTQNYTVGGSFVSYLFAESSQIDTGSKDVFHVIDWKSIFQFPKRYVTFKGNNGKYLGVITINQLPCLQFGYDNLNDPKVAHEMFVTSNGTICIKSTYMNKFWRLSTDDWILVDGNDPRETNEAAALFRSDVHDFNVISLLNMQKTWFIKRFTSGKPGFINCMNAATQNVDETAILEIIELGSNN

B1: PNA: peanut (Arachis hypogaea) agglutinin, T-antigen binding lectin (protein, UniProt P02872 24-273, looked up)
Galactose-binding lectin: AETVSFNFNSFSEGNPAINFQGDVTVLSNGNIQLTNLNKVNSVGRVLYAMPVRIWSSATGNVASFLTSFSFEMKDIKDYDPADGIIFFIAPEDTQIPAGSIGGGTLGVSDTKGAGHFVGVEFDTYSNSEYNDPPTDHVGIDVNSVDSVKTVPWNSVSGAVVKVTVIYDSSTKTLSVAVTNDNGDITTIAQVVDLKAKLPERVKFGFSASGSLGGRQIHLIRSWSFTSTLITTTRRSIDNNEKKIMNMASA
Effect of Newcastle disease virus neuraminidase on labeling (colonic adenocarcinoma): much less effect
Effect of V. Cholerae neuraminidase on labeling (colonic adenocarcinoma): greatly enhanced
Staining (global score 0-3+) (FAP colonic tissue): does not bind and 0
GalNAc concentration that inhibited labeling [1]: ≥ 100 mM
T-antigen concentration that inhibited labeling [1]: ≥ 100 µM
galactose concentration that inhibited labeling [1]: ≥ 10 mM
lactose concentration that inhibited labeling [1]: ≥ 10 mM
Labeling score ([1]; Gal 2.5 mM): Trace
Labeling score ([1]; Gal 10 mM): 0
Labeling score ([1]; Gal 20 mM): 0
Labeling score ([1]; Gal 100 mM): 0
Labeling score ([1]; Gal 400 mM): 0
Labeling score ([1]; GalNAc 100 mM): 0
Labeling score ([1]; GalNAc 250 mM): 0
Labeling score ([1]; Lactose 200 mM): 0
Labeling score ([1]; Lactose 400 mM): 0
Labeling score ([1]; T-antigen 100 μM): 0
Labeling score ([1]; T-antigen 200 μM): 0
Labeling score ([1]; T-antigen 400 μM): 0
agglutination of native A, B, or O red blood cells, in words [2]: does not agglutinate
Staining (global score 0-3+) (HNPCC tissues): rarely binds and 0 and 1^+
Effect of neuraminidase treatment on labeling [3]: did not produce an increase
Labeling of normal colon in the tissue survey [3]: No labeling
Staining (global score 0-3+) ([3]; biotinylated ACA 10 μg/mL or PNA 20 μg/mL): does not bind and 0

B2: asialoglycophorin: desialylated glycophorin (protein, UniProt P02724 20-150, looked up)
Glycophorin-A: LSTTEVAMHTSTSSSVTKSYISSQTNDTHKRDTYAATPRAHEVSEISVRTVYPPEEETGERVQLAHHFSEPEITLIIFGVMAGVIGTILLISYGIRRLIKKSPSDVKPLPSPDTDVPLSSVEIENPETSDQ
modifications: desialylated
notes: desialylated glycophorin
precipitation of amaranthin, in words (amaranthin): most active precipitating agent

B3: glycophorin: native glycophorin, major component of red blood cell membranes (protein, UniProt P02724 20-150, looked up)
Glycophorin-A: LSTTEVAMHTSTSSSVTKSYISSQTNDTHKRDTYAATPRAHEVSEISVRTVYPPEEETGERVQLAHHFSEPEITLIIFGVMAGVIGTILLISYGIRRLIKKSPSDVKPLPSPDTDVPLSSVEIENPETSDQ
precipitation of amaranthin, in words (amaranthin): small amount of precipitate
